Test results reported in the RNAGym collection of RNA variant scans (doi:10.1073/pnas.2313332121).
Variants at the floor of the assay were thinned out.

B1: TPR 5TU (parent)
chain: GGAUCUUCUCGAUCUAACAAAAAAGACAAAUCUGCCACAAAGCUUGAGAGCAUCUUCGGAUGCAGAGGCGGCAGCCUUCGGUGGCGCGAUAGCGCCAACGUUCUCAACUAUGACACGCAAAACGCGUGCUCCGUUGAAUGGAGUUUAUCAUG

Variants of: B1
Test: polymerase ribozyme fitness, log enrichment relative to wild type (log ratio); higher = more active; in vitro selection for triplet polymerase activity
Procedure, shortened: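 To select mutant libraries of each subunit of a heterodimeric triplet polymerase ribozyme, built by PCR and transcribed, each was annealed with a biotinylated primer, partner subunit and triplets, then incubated frozen at −7 °C. Extended constructs were gel-excised, captured on streptavidin beads and amplified by RT-PCR, in one round carried out in triplicate. Illumina sequencing of input and output libraries kept genotypes with ≥10 input reads and ≥1 read per output. Fitness is the base-2 logarithm of genotype enrichment relative to wild-type enrichment, from inverse-variance-weighted replicate averages.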

Variant | polymerase ribozyme fitness (log ratio)
C87U G117A | -0.356
G88U G117U A142C | ≤ -4.2
G92A C95A C125G | -3.82
A89C G94C | -1.57
C87U C129A | -2.76
A91C A120C | ≤ -4.2
A89G U146G C149G | -4.1
C87U U90C C99G | -3.53
A89C C105U | 0.174
A91G G140U | -4.19
A91U G92U C132A | ≤ -4.2
A91C A113G A138U | ≤ -4.2
G88C G143C | -3.92
C87U C105G A121U A122U | -1.19
C87U A115U G140U | -4.19
C87U C103U | -0.658
C87U C103G | -2.13
A89G A98G G143C | -3.66
A91G G94A | -3.47
G92A G100C | -4.07
U90C A147U | -3.58
G88C C93G U102C G124A | ≤ -4.2
A89U C93G A147U | -2.7
A89C C125A | -1.13

Variant | polymerase ribozyme fitness (log ratio)
A89G G92U C125U U146C | -1.03
A91C A142C | ≤ -4.2
A91U U109G G141U | ≤ -4.2
A89U G143U | -2.38
G88A A89G | -3.67
G88C A147C G152U | ≤ -4.2
A91G C108U | -3.97
G92A A113C | -4.16
U90C U127C | ≤ -4.2
G88U C116U A137C C149G | ≤ -4.2
C87A U101G G124A A142C | -4.02
C87A U90C G117C | -3.77
C87U A115U | -1.73
U90G G140C | ≤ -4.2
G92A C116A G143C A150G | ≤ -4.2
G88C A97U C103A G128C U134C U146C | ≤ -4.2
U90G A97G C114U U139G | ≤ -4.2
A91G G112C | -3.76
A89C A142G | -1.52
G88U G141U | -3.23
G88A A98U A106C | ≤ -4.2
C87U C93G A121U C132A | ≤ -4.2
A91U A142U | -3.67
A89U U109G | -0.917

Variant | polymerase ribozyme fitness (log ratio)
C87U A98G A106G | -1.08
A91G U144G | -2.02
C87U G143U | -2.69
G92A A107G | ≤ -4.2
U90G G94U A106U | ≤ -4.2
C87U G141U | 0.462
G92A C149U | -3.4
G92A G117C | -2.82
C87U A120G | -1.85
A89U C99G G126A C132G | -4.08
G92C A98G A115U | -2.44
G92A U144C A147U | -3.46
G92A G141A | -2.48
G92A G141C | -3.71
C87U G94C | -2.05
G88A C105A A147C U151G | ≤ -4.2
C87U A91G C105G | -4.02
C87U U101G A137C | -3.73
G88C A97C A110G | ≤ -4.2
U90A C95U A121U U127A | ≤ -4.2
C87G U134A | ≤ -4.2
A89U A91U C116U | ≤ -4.2
C87G G140C | ≤ -4.2
A91C A97G U109C A142C | ≤ -4.2

Variant | polymerase ribozyme fitness (log ratio)
C87U G117C U144A | -1.27
C87U A97U | -2.25
A89G C125U C132U | -1.73
G88A U127G C129U | ≤ -4.2
A91G U145G | -3.96
A91G U145A | -3.07
A91U C95G C116A G143U A147C | ≤ -4.2
G88C A115U | ≤ -4.2
G92C G141A | -0.778
C87U A107U | -3.34
C87U A120G A121C A147U U148C | -2.38
G88C A89C C95U | ≤ -4.2
G88A C118A A120G | ≤ -4.2
C87U A137G | -1.81
C87U A137C | -3.99
A89G G92U | -2.48
U90C G92A C123A G126A A147C | ≤ -4.2
C87A G141U | -3.64
C87A G141A | -3.89
A91G U139G | -3.56
A91U C114U U148G | ≤ -4.2
C87U A150C | -3.7
C87U C123U C149G | -2.65
G88A G124C | ≤ -4.2

Variant | polymerase ribozyme fitness (log ratio)
G92A C116G C123G | -2.92
G92C C132U | -1.6
G88C A137U G143A | ≤ -4.2
G88C U101C A113C U139G | ≤ -4.2
G88C A115U G117U C131G U135G | ≤ -4.2
A91G U127A | ≤ -4.2
C87G C105U U127C | -4.1
A89U C93U C125U U127A A142U C149U | ≤ -4.2
A91G A121U | -3.01
A89G A98U | -1.66
U90G C93G C99U | ≤ -4.2
A91U C118A A142C U144G | ≤ -4.2
U90C C99U | ≤ -4.2
G88U U130A A147C | ≤ -4.2
C87G A106G | -4
A91U C103U U145A | ≤ -4.2
C87U C114G | -2.79
A91C A115C | ≤ -4.2
A91C C96A G126A | ≤ -4.2
C87U A89G | -3.41
U90G G100A C116U | ≤ -4.2
A89U A91U | ≤ -4.2
A89G G124U | -1.93
A91G G92U | -2.31

Variant | polymerase ribozyme fitness (log ratio)
A89C A150G | -0.921
G92A U127A A150U | -4.1
G92C A115U | -1.86
G92A C103U | -2.02
A91G C95G | -3.67
G92A C99U G117U U151G | ≤ -4.2
G92A A106C U111G G136A | ≤ -4.2
U90A A106C A121U | ≤ -4.2
A89U C93G | -3.68
A89U C93U | -1.6
A89U C123U | 0.89
A89C U130A | -3.07
G88A C96A C125U G126U | ≤ -4.2
G88A A106G | -3.55
A91G A106G | -1.93
C87U U102C | -1.21
G92C C105U | -0.217
G92C C105G | -2.39
A89C | -0.82
A89G | -0.999
A89U | -0.292
G88C G100C A106G U146C | ≤ -4.2
A91U U145A | -4
A91U A106U G117A G136U | ≤ -4.2

Variant | polymerase ribozyme fitness (log ratio)
C87G G112U | ≤ -4.2
A91G C93U | -3.88
G88A A91C | ≤ -4.2
C87G U139A | ≤ -4.2
A89G C99G C116A | -1.92
A89G C125A | -1.77
C87U C105G | -1.18
A91U G141A | -4.05
G92C G124U C129U A138G U139G | ≤ -4.2
A91U C108A C114A C129A U146A | ≤ -4.2
G92C C103A | -3.4
C87G A98G | ≤ -4.2
C87G A98U | -3.64
G88U C149U | ≤ -4.2
A89U A97G U134A G141C | -3.84
C87U A122G | -1.83
G92A U148C | -4.02
G92C C116G | -1.52
A89C C96A A115G | -2.74
A91U G140U | ≤ -4.2
A91G C116G | -1.65
A91U G94A G128U | ≤ -4.2
C87U A150G G152U | ≤ -4.2
